Assay results: paper doi:10.1101/708180

Assays:
[1] = target: cHSP27, isolated α-crystallin domain of HSP27 (residues 84-171), oxidized disulfide-linked dimer (human) (UniProt P04792); assay: NMR titration + other: NMR CPMG relaxation dispersion
[2] = target: cHSP27, isolated α-crystallin domain of HSP27 (residues 84-171), oxidized disulfide-linked dimer (human) (UniProt P04792); assay: NMR titration
[3] = target: cHSP27, isolated α-crystallin domain of HSP27 (residues 84-171), oxidized disulfide-linked dimer (human) (UniProt P04792); assay: NMR CPMG relaxation dispersion

Chain of cHSP27, isolated α-crystallin domain of HSP27 (residues 84-171), oxidized disulfide-linked dimer (human) (P04792 84-171): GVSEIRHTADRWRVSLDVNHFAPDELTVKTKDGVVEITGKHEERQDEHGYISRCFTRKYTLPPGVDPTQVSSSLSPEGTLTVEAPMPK
Chain of C-terminal peptide of HSP27 bearing the P182L mutation (ILV motif) (P04792 whole entry P182L, looked up, tested part not stated): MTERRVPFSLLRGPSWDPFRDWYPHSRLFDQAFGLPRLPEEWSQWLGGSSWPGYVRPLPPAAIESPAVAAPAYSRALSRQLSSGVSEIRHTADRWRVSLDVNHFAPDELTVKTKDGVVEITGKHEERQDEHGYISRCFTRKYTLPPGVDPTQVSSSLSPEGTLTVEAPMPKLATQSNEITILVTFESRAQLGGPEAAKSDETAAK
Chain of C-terminal peptide of HSP27 containing the WT IxI/V (IPV) motif (P04792 whole entry, looked up, tested part not stated): as the sequence (P04792 whole entry P182L, looked up, tested part not stated) above, with L182P counted along it

fold difference of kon (from CSP Kd and CPMG koff) against the WT peptide [1]	Kd [2]	Kd [3]	koff [3]	kon [3]	Substance
10 fold	1200 µM	10200 µM	840 s⁻¹	82600 M⁻¹ s⁻¹	C-terminal peptide of HSP27 bearing the P182L mutation (ILV motif) (from UniProt P04792 179-186)
–	125 µM	2510 µM	759 s⁻¹	302000 M⁻¹ s⁻¹	C-terminal peptide of HSP27 containing the WT IxI/V (IPV) motif (from UniProt P04792 179-186)
